Biological target: T1, GST-RBM45 (6xHis-GST) (human, UniProt Q8IUH3 1-476)
T1 sequence: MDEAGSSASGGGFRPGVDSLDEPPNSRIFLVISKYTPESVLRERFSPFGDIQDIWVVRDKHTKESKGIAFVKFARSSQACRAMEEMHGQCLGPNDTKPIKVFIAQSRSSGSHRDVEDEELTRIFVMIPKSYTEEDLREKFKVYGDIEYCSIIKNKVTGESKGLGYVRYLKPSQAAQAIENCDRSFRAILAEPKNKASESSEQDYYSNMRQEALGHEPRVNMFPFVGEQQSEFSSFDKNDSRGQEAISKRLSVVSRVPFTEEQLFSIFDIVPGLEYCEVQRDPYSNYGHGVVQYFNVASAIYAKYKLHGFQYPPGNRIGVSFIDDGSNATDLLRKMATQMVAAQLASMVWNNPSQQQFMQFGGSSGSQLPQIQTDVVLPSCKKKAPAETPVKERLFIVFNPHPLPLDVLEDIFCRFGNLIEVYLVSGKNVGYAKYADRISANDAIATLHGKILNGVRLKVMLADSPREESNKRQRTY
Test: fluorescence polarization

B1: FAM m6A ssRNA (ssRNA)
RNA: UUCUUCUGUGGACUGUG
modifications: m6A at A12
**Q.** B1 was tested. Which Kd did it give?
**A.** 462 ± 73 nM
